The source of these data is paper PMC9364715.

Assay [1] deals with Ad5 hexon with DogTag inserted at HVR5, on Ad-DogTag virions (human adenovirus 5 (Ad5)) (UniProt P04133). Briefly: SDS-PAGE gel shift. In general terms: A gel shift assay detects complexes by their altered migration in electrophoresis.
Assay [2] shares this target. The assay can be described thus: SDS-PAGE gel shift. The source holds these as a separate data set.

Read-outs that look alike come from different tables or passages of the source.

On to DogCatcher-NANP9 (designed binder), for which, in assay [1], the percent of hexon covalently coupled was > 90 % of hexon.

As to DogCatcher-NANP18 (designed binder), the percent of hexon covalently coupled in assay [1] and in assay [2] was > 90 % of hexon throughout.

As to DogCatcher (designed binder), the percent of hexon covalently coupled (% of hexon protein) in assay [1] is above 90.
